Molecular target: VDRE-BP (NWP nuclear VDRE binding protein, B95-8 nuclear extract) (UniProt Q9TTV2)
Assay: competition
Settings: 100-fold excess unlabeled competitor

Chain of VDRE-BP (NWP nuclear VDRE binding protein, B95-8 nuclear extract) (Q9TTV2 whole entry): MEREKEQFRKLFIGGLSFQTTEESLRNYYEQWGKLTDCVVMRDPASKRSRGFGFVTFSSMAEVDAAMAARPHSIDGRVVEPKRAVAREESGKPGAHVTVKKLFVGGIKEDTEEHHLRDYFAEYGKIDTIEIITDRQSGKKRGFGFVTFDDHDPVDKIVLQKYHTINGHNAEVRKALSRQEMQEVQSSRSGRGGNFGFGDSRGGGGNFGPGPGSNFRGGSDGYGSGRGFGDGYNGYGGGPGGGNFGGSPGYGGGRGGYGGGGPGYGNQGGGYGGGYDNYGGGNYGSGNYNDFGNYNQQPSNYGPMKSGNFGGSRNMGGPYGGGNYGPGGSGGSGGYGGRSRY

Row | Sequence | binding signal (% decrease of opVDRE band)
1 | AGGTCA direct repeat, 3 bp spacer | 64
2 | GGTTCA direct repeat, 3 bp spacer | 61
